What was measured:
β-arrestin1-YFP = β-arrestin1-YFP (UniProt P49407); experiment: BRET (PAR2-Rluc8 / β-arrestin1-YFP) in cells; conditions: read off a plot

| Molecule | response (ligand induced ΔBRET) (β-arrestin1-YFP; cells stimulated with GzmK (concentration not given for panel D), parent: est. 0.027) | response (ligand induced ΔBRET) (β-arrestin1-YFP; cells treated with GzmK-AI (inactive GzmK; concentration not given for panel D), parent: est. -0.001) | cleavage product as percent of total peptide by HPLC after 15 h with granzyme (PAR2 peptide 10 (human)) |
| --- | --- | --- | --- |
| PAR2-Rluc8 (protease-activated receptor 2 fused to Renilla luciferase 8), uncleaved as expressed (from UniProt P55085) Arg36Ala | 0.0038 | -0.0015 |  |
| Granzyme K (enzyme) IIGGKEVSPHSRPFMASIQYGGHHVCGGVLIDPQWVLTAAHCQYRFTKGQSPTVVLGAHSLSKNEASKQTLEIKKFIPFSRVTSDPQSNDIMLVKLQTAAKLNKHVKMLHIRSKTSLRSGTKCKVTGWGATDPDSLRPSDTLREVTVTVLSRKLCNSQSYYNGDPFITKDMVCAGDAKGQKDSCKGDSGGPLICKGVFHAIVSGGHECGVATKPGIYTLLTKKYQTWIKSNLVPPHTN |  |  | 53 % of total |
| Granzyme A (enzyme) IIGGNEVTPHSRPYMVLLSLDRKTICAGALIAKDWVLTAAHCNLNKRSQVILGAHSITREEPTKQIMLVKKEFPYPCYDPATREGDLKLLQLMEKAKINKYVTILHLPKKGDDVKPGTMCQVAGWGRTHNSASWSDTLREVNITIIDRKVCNDRNHYNFNPVIGMNMVCAGSLRGGRDSCNGDSGSPLLCEGVFRGVTSFGLENKCGDPRGPGVYILLSKKHLNWIIMTIKGAV |  |  | 6.6 % of total |

— article PMC9321427
